{"source": "paper PMC12288454", "about": "“Functional consequences of genetic variations in DgoR, a GntR/FadR family transcriptional repressor of D-galactonate metabolism in Escherichia coli” (Journal of Bacteriology, 2025)", "key": {"[1]": {"target": "T1, DgoR R71C (Escherichia coli BW, UniProt P31460 1-229, R71C)", "T1 sequence": "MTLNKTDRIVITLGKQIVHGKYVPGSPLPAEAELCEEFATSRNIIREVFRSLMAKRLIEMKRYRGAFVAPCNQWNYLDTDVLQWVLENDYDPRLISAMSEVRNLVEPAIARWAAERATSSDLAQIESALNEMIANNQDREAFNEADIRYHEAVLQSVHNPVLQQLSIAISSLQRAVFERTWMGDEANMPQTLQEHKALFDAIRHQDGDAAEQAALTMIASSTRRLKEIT", "test": "EMSA; no effector; apparent Kd, Hill fit; 10 nM DNA, 50 mM Tris pH 8.5, 10 mM MgCl2, 265 mM NaCl, 1 mM PMSF, 12% glycerol, 2 mM DTT, 1 ug herring sperm DNA per 20 uL, 27 C 30 min; effector pre-incubation 37 C 20 min; 8% native PAGE 0.5x TBE", "settings": "protein: recombinant; tags: C-terminal 6xHis; chain copies: 2; label: 5'-Cy5 on strand 1; blunt"}, "[2]": {"target": "T2, DgoR A152E (Escherichia coli BW, UniProt P31460 1-229, A152E)", "T2 sequence": "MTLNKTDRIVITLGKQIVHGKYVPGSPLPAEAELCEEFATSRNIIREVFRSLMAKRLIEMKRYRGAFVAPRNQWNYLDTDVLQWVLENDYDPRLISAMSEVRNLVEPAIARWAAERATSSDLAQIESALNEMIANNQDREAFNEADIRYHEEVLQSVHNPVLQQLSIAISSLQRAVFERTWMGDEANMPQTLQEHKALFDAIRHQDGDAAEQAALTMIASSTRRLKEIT", "test": "EMSA; no effector; apparent Kd, Hill fit; 10 nM DNA, 50 mM Tris pH 8.5, 10 mM MgCl2, 265 mM NaCl, 1 mM PMSF, 12% glycerol, 2 mM DTT, 1 ug herring sperm DNA per 20 uL, 27 C 30 min; effector pre-incubation 37 C 20 min; 8% native PAGE 0.5x TBE", "settings": "protein: recombinant; tags: C-terminal 6xHis; chain copies: 2; label: 5'-Cy5 on strand 1; blunt"}}}
{"binder": "dgo promoter probe GA149/GA150 (dsDNA) DNA 1: GTGATCTAAATTGTAGTACAACAATATAAGTTTGTACTACATTACACGCACG DNA 2: CGTGCGTGTAATGTAGTACAAACTTATATTGTTGTACTACAATTTAGATCAC", "values": [{"measurement": "Kd", "setting": "[1]", "result": "570 ± 16", "unit": "nM"}, {"measurement": "Kd", "setting": "[2]", "result": "1940 ± 90", "unit": "nM"}]}
